Experimental findings from publication PMC12292835, “Amylin Receptor 1 Mutagenesis Revealed a Potential Role of Calcitonin Serine 29 in Receptor Interaction” (Biomedicines, 2025) are described below.

Holding throughout (assay): fluorescence polarisation; saturation binding format; 10 nM FITC-labeled peptide probe, purified receptor ECD at rising concentrations; 1 h at room temperature; anisotropy; mean pKD of at least three independent experiments
What all share (details): both partners purified

Test [1] concerns the target T1, FITC-labeled AC413(6–25) with Y25P mutation (fluorescein isothiocyanate (FITC) on the N-terminus).
T1 construct: AC413, an antagonist amylin analog, residues 6-25 (20 amino acids) with Y25P; also called FITC-AC413(6–25) Y25P; AC413(6–25) Y25P; source: synthetic peptide (custom-synthesized, Genscript, HPLC-purified)

Test [2] addresses T2, FITC-labeled salmon calcitonin (sCT) fragment(22–32) (salmon, fluorescein isothiocyanate (FITC) label, position not stated).
T2 construct: salmon calcitonin, residues 22-32 (11 amino acids); numbers count on: the mature 32-residue hormone; probably FITC at the N-terminus and a C-terminal amide, neither stated for this peptide; also called FITC-sCT(22–32); sCT(22–32); source: synthetic peptide (custom-synthesized, Genscript, HPLC-purified)

For test [3], the target named is T2, FITC-labeled salmon calcitonin (sCT) …. The source holds these as a separate data set.

B1: amylin receptor 1 extracellular domain, wild type (hRAMP1.24–111-(GSA)3-hCTR.34–141-H6) (receptor)
chain: TTACQEANYGALLRELCLTQFQVDMEAVGETLWCDWGRTIRSYRELADCTWHMAEKLGCFWPNAEVDRFFLAVHGRYFRSCPISGRAVGSAGSAGSAIEPKPFLYVVGRKKMMDAQYKCYDRMQQLPAYQGEGPYCNRTWDGWLCWDDTPAGVLSYQFCPDYFPDFDPSEKVTKYCDEKGVWFKHPENNRTWSNYTMCNAFTPEK
modifications: N-glycosylated (sites not given)
In the case of B1, in test [1], the dissociation constant Kd (as a rule, the constant that tells how readily two partners part at equilibrium) turned out to be 57 nM and the negative logarithm of the KD (pKD) (as a rule, −log10 of the KD, conventionally taken in molar units) was 7.24. For the same molecule, in test [2], the Kd was determined as 81 nM and the pKD was determined as 7.09.

B2: amylin receptor 1 extracellular domain with calcitonin receptor N124D (hRAMP1.24–111-(GSA)3-hCTR.34–141.N124D-H6) (receptor)
chain: TTACQEANYGALLRELCLTQFQVDMEAVGETLWCDWGRTIRSYRELADCTWHMAEKLGCFWPNAEVDRFFLAVHGRYFRSCPISGRAVGSAGSAGSAIEPKPFLYVVGRKKMMDAQYKCYDRMQQLPAYQGEGPYCNRTWDGWLCWDDTPAGVLSYQFCPDYFPDFDPSEKVTKYCDEKGVWFKHPEDNRTWSNYTMCNAFTPEK
modifications: N-glycosylated (sites not given)
For B2, in test [1], binding was characterised by a dissociation constant (Kd) of 822 nM and the pKD was 6.09. Moreover, in test [2], the Kd was 52 nM and the pKD stood at 7.29.

B3: amylin receptor 1 extracellular domain with calcitonin receptor D97E (hRAMP1.24–111-(GSA)3-hCTR.34–141.D97E-H6) (receptor)
chain: TTACQEANYGALLRELCLTQFQVDMEAVGETLWCDWGRTIRSYRELADCTWHMAEKLGCFWPNAEVDRFFLAVHGRYFRSCPISGRAVGSAGSAGSAIEPKPFLYVVGRKKMMDAQYKCYDRMQQLPAYQGEGPYCNRTWDGWLCWDDTPAGVLSYQFCPEYFPDFDPSEKVTKYCDEKGVWFKHPENNRTWSNYTMCNAFTPEK
modifications: N-glycosylated (sites not given)
In test [1], B3 came in with a Kd of 81 nM and a negative-log KD (pKD) of 7.09. Further, in test [2], the dissociation constant Kd amounted to 161 nM and the pKD is 6.79.

B4: amylin receptor 1 extracellular domain with calcitonin receptor D97A (hRAMP1.24–111-(GSA)3-hCTR.34–141.D97A-H6) (receptor)
chain: TTACQEANYGALLRELCLTQFQVDMEAVGETLWCDWGRTIRSYRELADCTWHMAEKLGCFWPNAEVDRFFLAVHGRYFRSCPISGRAVGSAGSAGSAIEPKPFLYVVGRKKMMDAQYKCYDRMQQLPAYQGEGPYCNRTWDGWLCWDDTPAGVLSYQFCPAYFPDFDPSEKVTKYCDEKGVWFKHPENNRTWSNYTMCNAFTPEK
modifications: N-glycosylated (sites not given)
Take B4: in test [1], the dissociation constant Kd was 62 nM and the pKD stood at 7.21. Besides, in test [2], the Kd was 548 nM and the pKD was determined as 6.26.

B5: amylin receptor 1 extracellular domain with calcitonin receptor N124A (hRAMP1.24–111-(GSA)3-hCTR.34–141.N124A-H6) (receptor)
chain: TTACQEANYGALLRELCLTQFQVDMEAVGETLWCDWGRTIRSYRELADCTWHMAEKLGCFWPNAEVDRFFLAVHGRYFRSCPISGRAVGSAGSAGSAIEPKPFLYVVGRKKMMDAQYKCYDRMQQLPAYQGEGPYCNRTWDGWLCWDDTPAGVLSYQFCPDYFPDFDPSEKVTKYCDEKGVWFKHPEANRTWSNYTMCNAFTPEK
modifications: N-glycosylated (sites not given)
In test [1], B5 yielded an equilibrium dissociation constant (Kd) of 467 nM and a pKD of 6.33. Further, the “fold decrease of affinity against the wild type” value in test [3] was more than 10 fold.

B6: amylin receptor 1 extracellular domain with calcitonin receptor E123D (hRAMP1.24–111-(GSA)3-hCTR.34–141.E123D-H6) (receptor)
chain: TTACQEANYGALLRELCLTQFQVDMEAVGETLWCDWGRTIRSYRELADCTWHMAEKLGCFWPNAEVDRFFLAVHGRYFRSCPISGRAVGSAGSAGSAIEPKPFLYVVGRKKMMDAQYKCYDRMQQLPAYQGEGPYCNRTWDGWLCWDDTPAGVLSYQFCPDYFPDFDPSEKVTKYCDEKGVWFKHPDNNRTWSNYTMCNAFTPEK
modifications: N-glycosylated (sites not given)
For the molecule B6, the equilibrium dissociation constant (Kd) in test [1] amounted to 136 nM; in test [2] it was 53 nM. The pKD in test [1] turned out to be 6.87; in test [2] it was 7.28.

B7: amylin receptor 1 extracellular domain with calcitonin receptor E123A (hRAMP1.24–111-(GSA)3-hCTR.34–141.E123A-H6) (receptor)
chain: TTACQEANYGALLRELCLTQFQVDMEAVGETLWCDWGRTIRSYRELADCTWHMAEKLGCFWPNAEVDRFFLAVHGRYFRSCPISGRAVGSAGSAGSAIEPKPFLYVVGRKKMMDAQYKCYDRMQQLPAYQGEGPYCNRTWDGWLCWDDTPAGVLSYQFCPDYFPDFDPSEKVTKYCDEKGVWFKHPANNRTWSNYTMCNAFTPEK
modifications: N-glycosylated (sites not given)
Take B7: the values for the Kd in test [1] and in test [2] were 129 nM and 365 nM, respectively. Further, the negative logarithm of the KD (pKD) in test [1] was 6.89; in test [2], 6.44.
